Results as given in patent US20140135482A1 (Hoffmann-La Roche, published 2014).

Legend:
human ErbB-3 (on cells) [1] = biological target: T1, human ErbB-3 (on cells) (human, UniProt P21860 20-1342); experiment: cell-based or functional assay
human ErbB-3 (on cells) [2] = biological target: T1, human ErbB-3 (on cells); experiment: flow cytometry on A431 cells, dilution series of the bispecific antibody in the presence of Fab 5D5 (its concentration is not given on the sheet), detected with PE-coupled anti-human Fc antibody
human ErbB-3 (on cells) [3] = biological target: T1, human ErbB-3 (on cells); experiment: flow cytometry on A431 cells, dilution series of the antibody, detected with PE-coupled anti-human Fc antibody
Method: (§1) A431 were detached and counted. 1.5×10e5 cells were seeded per well of a conical 96-well plate. Cells were spun down (1500 rpm, 4° C., 5 min) and incubated for 30 min on ice in 50 μL of a dilution series of the respective bispecific antibody in PBS with 2% FCS (fetal calf serum). Cells were again spun down and washed once with 200 μL PBS containing 2% FCS followed by a second incubation of 30 min with a phycoerythrin-coupled antibody directed against human Fc which was diluted in PBS containing 2% FCS (Jackson Immunoresearch, 109116098). Cells were spun down washed twice with 200 μL PBS containing 2% FCS, resuspended in BD CellFix solution (BD Biosciences) and incubated for at least 10 min on ice. Mean fluorescence intensity (mfi) of the cells was determined by flow cytometry (FACS Canto, BD). Mfi was determined at least in duplicates of two independent stainings Flow cytometry spectra were further processed using the FlowJo software (TreeStar). Half-maximal binding was determined using XLFit 4.0 (IDBS) and the dose response one site model 205.
(§2) The binding properties of the bispecific antibodies to their respective receptor on the cell surface was analyzed on A431 cancer cells in a flow cytometry based assay. Cells were incubated with the mono- or bispecific primary antibodies and binding of these antibodies to their cognate receptors was detected with a secondary antibody coupled to a fluorophor binding specifically to the Fc of the primary antibody. The mean fluorescence intensity of a dilution series of the primary antibodies was plotted against the concentration of the antibody to obtain a sigmoidal binding curve.

[4] = biological target: T2, recombinant Her3 ectodomain (ECD) (human, UniProt P21860 20-643); experiment: SPR (Biacore T100), antibody captured by anti-Fc gamma antibody, ECD in solution, 25 C
T2 construct: the whole entry for human ErbB-3 is named; also called human HER3 ECD

[5] = biological target: T3, recombinant c-Met ectodomain (ECD) (human, UniProt P08581 25-932); experiment: as above
T3 construct: the whole entry for human c-Met is named; also called c-Met ECD

human c-Met (on cells) = biological target: T4, human c-Met (on cells) (human, UniProt P08581 25-1390); experiment: flow cytometry on A431 cells, dilution series of the antibody, detected with PE-coupled anti-human Fc antibody
T4 construct: Endogenous receptor on human cell lines (A431, A549, HT29, DU145, HUVEC); also called c-Met receptor
Method: as §1, §2

% ErbB3 receptor on A431 cell surface measured after 2 h (human ErbB-3 (on cells) [1]) [%]	% Internalization of ErbB3 after 2 h on A431 cells (human ErbB-3 (on cells) [1]) [%]	Binder	also measured
60	40	<ErbB3> Mab 205 (chimeric) (antibody, V domains shown) VH: QGQMQQSGAELVKPGASVKLSCKTSGFTFRSSYISWLKQKPRQSLEWIAWIYAGTGSPSYNQKFTGKAQLTVDTSSSTAYMQLSSLTSEDSAIYYCARHRDYYSNSLTYWGQGTLVTVSA VL: DIVMTQSPSSLTVTAGENVTMSCKSSQSLLNSGNQKNYLTWYQQKPGQPPKLLIYWASTRESGVPNRFTGSGSGTDFTLAISSVQAEDLSIYYCQSDYSYPYTFGQGTKLEIK	–
94	6	<ErbB3-c-Met> Her3/Met_6C (bispecific antibody, human IgG1, kappa) heavy 1: not shown heavy 2: not shown light: DIQMTQTTSSLSASLGDRVTISCRARQDISNYLNWYQRKPDGTVKLLIYYTSRLHSGVPSRFSGSGSGTDYSLTISNLEQEDIATYFCQQGNTFPWTFGGGTKLEIKRTVAAPSVFIFPPSDEQLKSGTASVVCLLNNFYPREAKVQWKVDNALQSGNSQESVTEQDSKDSTYSLSSTLTLSKADYEKHKVYACEVTHQGLSSPVTKSFNRGEC	–
89	11	<ErbB3-c-Met> Her3/Met_SSKH (bispecific antibody, human IgG1, kappa) heavy 1: not shown heavy 2: not shown light: DIQMTQTTSSLSASLGDRVTISCRARQDISNYLNWYQRKPDGTVKLLIYYTSRLHSGVPSRFSGSGSGTDYSLTISNLEQEDIATYFCQQGNTFPWTFGGGTKLEIKRTVAAPSVFIFPPSDEQLKSGTASVVCLLNNFYPREAKVQWKVDNALQSGNSQESVTEQDSKDSTYSLSSTLTLSKADYEKHKVYACEVTHQGLSSPVTKSFNRGEC	–
–	–	<ErbB3-c-Met> Her3/Me_scFvSSKH (bispecific antibody, human IgG1, kappa) heavy 1: not shown heavy 2: not shown light: DIQMTQTTSSLSASLGDRVTISCRARQDISNYLNWYQRKPDGTVKLLIYYTSRLHSGVPSRFSGSGSGTDYSLTISNLEQEDIATYFCQQGNTFPWTFGGGTKLEIKRTVAAPSVFIFPPSDEQLKSGTASVVCLLNNFYPREAKVQWKVDNALQSGNSQESVTEQDSKDSTYSLSSTLTLSKADYEKHKVYACEVTHQGLSSPVTKSFNRGEC	EC50 (read off the curve) (human ErbB-3 (on cells) [2]): ~0.06 µg/mL
–	–	<ErbB3-c-Met> Her3/Met_KHSS (bispecific antibody, human IgG1, kappa, also called Her3/c-Met KHSS) heavy 1: not shown heavy 2: not shown light: DIQMTQTTSSLSASLGDRVTISCRARQDISNYLNWYQRKPDGTVKLLIYYTSRLHSGVPSRFSGSGSGTDYSLTISNLEQEDIATYFCQQGNTFPWTFGGGTKLEIKRTVAAPSVFIFPPSDEQLKSGTASVVCLLNNFYPREAKVQWKVDNALQSGNSQESVTEQDSKDSTYSLSSTLTLSKADYEKHKVYACEVTHQGLSSPVTKSFNRGEC	binding result (human ErbB-3 (on cells) [3]): binds
–	–	MH_TvAB21 (bispecific antibody) chain 1: not shown chain 2: not shown chain 3: DIVMTQSPSSLTVTAGENVTMSCKSSQSLLNSGNQKNYLTWYQQKPGQPPKLLIYWASTRESGVPNRFTGSGSGTDFTLAISSVQAEDLSIYYCQSDYSYPYTFGQGTKLEIKRTVAAPSVFIFPPSDEQLKSGTASVVCLLNNFYPREAKVQWKVDNALQSGNSQESVTEQDSKDSTYSLSSTLTLSKADYEKHKVYACEVTHQGLSSPVTKSFNRGEC	Kd [4]: 1.8 nM; Kd [5]: 0.8 nM
–	–	MH_TvAB22 (bispecific antibody) chain 1: not shown chain 2: not shown chain 3: DIVMTQSPSSLTVTAGENVTMSCKSSQSLLNSGNQKNYLTWYQQKPGQPPKLLIYWASTRESGVPNRFTGSGSGTDFTLAISSVQAEDLSIYYCQSDYSYPYTFGQGTKLEIKRTVAAPSVFIFPPSDEQLKSGTASVVCLLNNFYPREAKVQWKVDNALQSGNSQESVTEQDSKDSTYSLSSTLTLSKADYEKHKVYACEVTHQGLSSPVTKSFNRGEC	Kd [4]: 2.1 nM; Kd [5]: 0.9 nM
44	54	<ErbB3> HER3 clone 29 (antibody, human IgG1, kappa, V domains shown, Monospecific bivalent parent antibody (chimeric)) VH: DVQLQESGPGLVKPSQSLSLTCSVTGYSITSAYYWNWIRQFPGNKLEWMGYISYGGSNSYAPSLKNRFSITRDTSKNQFFLKLNSVTTEDTATYYCARESDYAYFDYWGQGTTLTVSS VL: DIQMTQTTSSLSASLGDRVTISCRARQDISNYLNWYQRKPDGTVKLLIYYTSRLHSGVPSRFSGSGSGTDYSLTISNLEQEDIATYFCQQGNTFPWTFGGGTKLEIKR	EC50 (read off the curve) (human ErbB-3 (on cells) [3]): ~0.03 µg/mL
–	–	<c-Met> Mab 5D5 (antibody, human IgG1, kappa, V domains shown, Monospecific, bivalent c-Met parent antibody (humanized); also called c-Met 5D5; bivalent 5D5) VH: EVQLVESGGGLVQPGGSLRLSCAASGYTFTSYWLHWVRQAPGKGLEWVGMIDPSNSDTRFNPNFKDRFTISADTSKNTAYLQMNSLRAEDTAVYYCATYRSYVTPLDYWGQGTLVTVSS VL: DIQMTQSPSSLSASVGDRVTITCKSSQSLLYTSSQKNYLAWYQQKPGKAPKLLIYWASTRESGVPSRFSGSGSGTDFTLTISSLQPEDFATYYCQQYYAYPWTFGQGTKVEIKR	EC50 (read off the curve) (human c-Met (on cells)): ~0.06 µg/mL
